Measured values from the Immune Epitope Database (IEDB).

Experiments:
Experiment in all cases: IEDB peptide-MHC binding, purified MHC/competitive/radioactivity; filed as Kd, often an IC50 or EC50 that approximates it; ≥ and ≤ were set here for values at or beyond the usual limits of such assays
HLA-A*68:01 = biological target: HLA-A*68:01
HLA-A*33:01 = biological target: HLA-A*33:01
HLA-A*03:01 = biological target: HLA-A*03:01
HLA-A*31:01 = biological target: HLA-A*31:01
HLA-A*11:01 = biological target: HLA-A*11:01
[1] = source organism: Vaccinia virus WR
[2] = source organism: Dengue virus 4 Dominica/814669/1981
[3] = source organism: Dengue virus 1 Brazil/97-11/1997
[4] = source organism: SARS coronavirus Tor2
[5] = source organism: Lymphocytic choriomeningitis virus (strain Armstrong)
[6] = source organism: Lassa virus GA391
[7] = source organism: Dengue virus 2 Jamaica/1409/1983
[8] = source organism: Mammarenavirus choriomeningitidis
[9] = source organism: Lassa virus Josiah
[10] = source organism: Dengue virus 3 Martinique/1243/1999

LIVSLCPTKK
Kd (HLA-A*68:01; [1]): 0.35 µM
Kd (HLA-A*33:01; [1]): ≥ 70 µM
Kd (HLA-A*03:01; [1]): 0.226 µM
Kd (HLA-A*31:01; [1]): 11.6 µM
Kd (HLA-A*11:01; [1]): 0.0569 µM

LLDSIKMIY
Kd (HLA-A*68:01; [1]): 0.722 µM
Kd (HLA-A*33:01; [1]): ≥ 48.6 µM
Kd (HLA-A*03:01; [1]): 4.73 µM
Kd (HLA-A*31:01; [1]): 3.35 µM
Kd (HLA-A*11:01; [1]): 17.8 µM

LMIVAKHER
Kd (HLA-A*31:01; [2]): 0.0498 µM

LMTLMKGASR
Kd (HLA-A*31:01; [2]): 0.0726 µM

LSKSEFNTYK
Kd (HLA-A*11:01; [3]): 0.557 µM

LSTLNFNNLR
Kd (HLA-A*68:01; [1]): 0.012 µM
Kd (HLA-A*33:01; [1]): 1.53 µM
Kd (HLA-A*03:01; [1]): 3.74 µM
Kd (HLA-A*31:01; [1]): 0.0368 µM
Kd (HLA-A*11:01; [1]): 0.207 µM

LVTFKTAHAK
Kd (HLA-A*03:01; [3]): 0.0262 µM
Kd (HLA-A*11:01; [3]): 0.478 µM

MIKNLTQLFK
Kd (HLA-A*68:01; [1]): 0.00162 µM
Kd (HLA-A*33:01; [1]): 0.318 µM
Kd (HLA-A*03:01; [1]): 0.000828 µM
Kd (HLA-A*31:01; [1]): 0.00429 µM
Kd (HLA-A*11:01; [1]): 0.000762 µM

MINYYNEMSR
Kd (HLA-A*68:01; [1]): 0.0134 µM
Kd (HLA-A*33:01; [1]): 0.406 µM
Kd (HLA-A*03:01; [1]): 0.143 µM
Kd (HLA-A*31:01; [1]): 0.0959 µM
Kd (HLA-A*11:01; [1]): 0.0533 µM

MSLYMAISPK
Kd (HLA-A*68:01; [4]): 0.0107 µM
Kd (HLA-A*33:01; [4]): 1.87 µM
Kd (HLA-A*03:01; [4]): 0.000256 µM
Kd (HLA-A*31:01; [4]): 0.0694 µM
Kd (HLA-A*11:01; [4]): 0.000199 µM

MTSRMLLNR
Kd (HLA-A*68:01; [3]): 0.0546 µM
Kd (HLA-A*33:01; [3]): 0.00247 µM
Kd (HLA-A*31:01; [3]): ≥ 23.6 µM
Kd (HLA-A*11:01; [3]): 0.0404 µM

MWQLMYFHRR
Kd (HLA-A*33:01; [3]): 0.0113 µM
Kd (HLA-A*31:01; [3]): ≥ 25.7 µM

NFFVFIHMVR
Kd (HLA-A*68:01; [1]): 0.000996 µM
Kd (HLA-A*33:01; [1]): 0.00799 µM
Kd (HLA-A*03:01; [1]): 0.174 µM
Kd (HLA-A*31:01; [1]): 0.0186 µM
Kd (HLA-A*11:01; [1]): 0.718 µM

NGQFIHFYR
Kd (HLA-A*68:01; [5]): 0.0139 µM
Kd (HLA-A*33:01; [5]): ≥ 50.4 µM
Kd (HLA-A*03:01; [5]): 8.35 µM
Kd (HLA-A*31:01; [5]): 0.00367 µM
Kd (HLA-A*11:01; [5]): 2.53 µM

NIRLTDTEY
Kd (HLA-A*68:01; [1]): ≥ 77.7 µM
Kd (HLA-A*33:01; [1]): ≥ 77.7 µM
Kd (HLA-A*03:01; [1]): ≥ 78 µM
Kd (HLA-A*31:01; [1]): ≥ 77.9 µM
Kd (HLA-A*11:01; [1]): ≥ 77.9 µM

NISIISIRPR
Kd (HLA-A*68:01; [1]): 0.0051 µM
Kd (HLA-A*33:01; [1]): 0.285 µM
Kd (HLA-A*03:01; [1]): 2.64 µM
Kd (HLA-A*31:01; [1]): 0.0496 µM
Kd (HLA-A*11:01; [1]): 0.866 µM

NLDLFMSHVK
Kd (HLA-A*68:01; [1]): 0.852 µM
Kd (HLA-A*33:01; [1]): 2.88 µM
Kd (HLA-A*03:01; [1]): 0.0194 µM
Kd (HLA-A*31:01; [1]): 7.76 µM
Kd (HLA-A*11:01; [1]): 0.0688 µM

NTPVSMTYLY
Kd (HLA-A*68:01; [1]): 0.415 µM
Kd (HLA-A*33:01; [1]): ≥ 70 µM
Kd (HLA-A*03:01; [1]): ≥ 45.5 µM
Kd (HLA-A*31:01; [1]): ≥ 70 µM
Kd (HLA-A*11:01; [1]): 1.4 µM

NYSRYWYLNH
Kd (HLA-A*68:01; [6]): ≥ 70.1 µM
Kd (HLA-A*33:01; [6]): 1.36 µM
Kd (HLA-A*03:01; [6]): 16.2 µM
Kd (HLA-A*31:01; [6]): 7.96 µM
Kd (HLA-A*11:01; [6]): ≥ 30.8 µM

PSILPSLIK
Kd (HLA-A*68:01; [1]): ≥ 40.9 µM
Kd (HLA-A*33:01; [1]): ≥ 77.7 µM
Kd (HLA-A*03:01; [1]): 1.85 µM
Kd (HLA-A*31:01; [1]): ≥ 36.9 µM
Kd (HLA-A*11:01; [1]): 0.383 µM

QILDNAAKY
Kd (HLA-A*68:01; [1]): ≥ 77.7 µM
Kd (HLA-A*33:01; [1]): ≥ 77.7 µM
Kd (HLA-A*03:01; [1]): ≥ 78 µM
Kd (HLA-A*31:01; [1]): ≥ 77.9 µM
Kd (HLA-A*11:01; [1]): 8.8 µM

QILMKTANNY
Kd (HLA-A*68:01; [1]): 5.02 µM
Kd (HLA-A*33:01; [1]): 8.87 µM
Kd (HLA-A*03:01; [1]): 0.106 µM
Kd (HLA-A*31:01; [1]): 2.38 µM
Kd (HLA-A*11:01; [1]): 0.879 µM

QQQQGQTVTK
Kd (HLA-A*68:01; [4]): 11.3 µM
Kd (HLA-A*33:01; [4]): ≥ 70 µM
Kd (HLA-A*03:01; [4]): 10.2 µM
Kd (HLA-A*31:01; [4]): ≥ 27.8 µM
Kd (HLA-A*11:01; [4]): 0.492 µM

RAFDIYNEK
Kd (HLA-A*68:01; [4]): 0.378 µM
Kd (HLA-A*33:01; [4]): ≥ 77.7 µM
Kd (HLA-A*03:01; [4]): 0.0108 µM
Kd (HLA-A*31:01; [4]): 0.106 µM
Kd (HLA-A*11:01; [4]): 0.00358 µM

RFVKFNDYRK
Kd (HLA-A*68:01; [1]): 0.0511 µM
Kd (HLA-A*33:01; [1]): 1.83 µM
Kd (HLA-A*03:01; [1]): 0.516 µM
Kd (HLA-A*31:01; [1]): 0.0373 µM
Kd (HLA-A*11:01; [1]): 0.429 µM

RLQMAGVEVR
Kd (HLA-A*68:01; [1]): 0.91 µM
Kd (HLA-A*33:01; [1]): 4.95 µM
Kd (HLA-A*03:01; [1]): 1.48 µM
Kd (HLA-A*31:01; [1]): 0.118 µM
Kd (HLA-A*11:01; [1]): 14.7 µM

RSCTLPPLR
Kd (HLA-A*31:01; [7]): 0.0046 µM

RSNAILHNIY
Kd (HLA-A*68:01; [1]): 1.03 µM
Kd (HLA-A*33:01; [1]): ≥ 70 µM
Kd (HLA-A*03:01; [1]): 3.72 µM
Kd (HLA-A*31:01; [1]): 0.619 µM
Kd (HLA-A*11:01; [1]): 1.36 µM

RSTAIKVTK
Kd (HLA-A*68:01; [1]): 0.0139 µM
Kd (HLA-A*33:01; [1]): 11.2 µM
Kd (HLA-A*03:01; [1]): 0.214 µM
Kd (HLA-A*31:01; [1]): 0.00126 µM
Kd (HLA-A*11:01; [1]): 0.00677 µM

RVIDPRRCMK
Kd (HLA-A*31:01; [7]): 0.0044 µM

RVSTVQQLTK
Kd (HLA-A*03:01; [7]): 0.0175 µM
Kd (HLA-A*11:01; [7]): 0.204 µM

SAFNKKHFDH
Kd (HLA-A*68:01; [8]): ≥ 36.6 µM
Kd (HLA-A*33:01; [8]): ≥ 28.7 µM
Kd (HLA-A*03:01; [8]): ≥ 22.3 µM
Kd (HLA-A*31:01; [8]): 12.5 µM
Kd (HLA-A*11:01; [8]): 1.25 µM

SFGGASCCLY
Kd (HLA-A*68:01; [4]): 0.18 µM
Kd (HLA-A*33:01; [4]): 3.77 µM
Kd (HLA-A*03:01; [4]): 0.302 µM
Kd (HLA-A*31:01; [4]): 2.5 µM
Kd (HLA-A*11:01; [4]): 0.14 µM

SFYLISIFLH
Kd (HLA-A*68:01; [9]): 3.24 µM
Kd (HLA-A*33:01; [9]): 0.281 µM
Kd (HLA-A*03:01; [9]): 1.02 µM
Kd (HLA-A*31:01; [9]): 0.16 µM
Kd (HLA-A*11:01; [9]): 17.1 µM

SLRPQPTELK
Kd (HLA-A*03:01; [7]): 0.00301 µM

SLRTTTVTGK
Kd (HLA-A*03:01; [3]): 0.00638 µM

SNMLSIINK
Kd (HLA-A*11:01; [10]): 0.116 µM

SQILPDPLK
Kd (HLA-A*68:01; [4]): ≥ 50.4 µM
Kd (HLA-A*33:01; [4]): ≥ 55.9 µM
Kd (HLA-A*03:01; [4]): 17.4 µM
Kd (HLA-A*31:01; [4]): ≥ 25.3 µM
Kd (HLA-A*11:01; [4]): 4.55 µM

SSNVANYQK
Kd (HLA-A*68:01; [4]): 0.0548 µM
Kd (HLA-A*33:01; [4]): ≥ 77.7 µM
Kd (HLA-A*31:01; [4]): 4.04 µM

TTLWEGSPGK
Kd (HLA-A*11:01; [3]): 0.085 µM

TTRMENLLWK
Kd (HLA-A*03:01; [10]): 0.102 µM
Kd (HLA-A*11:01; [10]): 0.103 µM

TWMSAEGAWR
Kd (HLA-A*33:01; [10]): 0.375 µM
Kd (HLA-A*31:01; [10]): 0.248 µM

VSILLSSLLK
Kd (HLA-A*03:01; [3]): 0.0109 µM
Kd (HLA-A*11:01; [3]): 0.0492 µM

VSTPQGLVK
Kd (HLA-A*11:01; source organism: Dengue virus 4 Philippines/H241/1956): 6.89 µM

YLALMATFK
Kd (HLA-A*03:01; [3]): 0.00713 µM
